As a reminder, the Kd is the free concentration of one partner at which half of the binding sites on the other are occupied at equilibrium, for simple one-to-one binding. As a reminder, the koff is the rate constant with which the complex falls apart. A high value points to fast dissociation. A word on the kon: it is the second-order rate constant of association. A lower kon goes with slower complex formation.

The text below walks through data of patent publication US20180044374A1.

For experiment [1], the target named is human polyclonal IgG (Gammanorm) (human). Kind of experiment: pH 6-3 citrate gradient elution from column, peak 1.
Experiment [2] shares this target. Kind of experiment: pH 6-3 citrate gradient elution from column, peak 2.
The target is the same in experiment [3]. Kind of experiment: dynamic binding capacity, measured after 24 h cumulative exposure to 0.5 M NaOH; ligand 9.7 mg/ml on agarose beads.
The target is the same in experiment [4]. The experiment in a line: dynamic binding capacity, 6 min residence; ligand 9.7 mg/ml on agarose beads.
Experiment [5] shares this target. The experiment is described as above. The source holds these as a separate data set.
Experiment [6] shares this target. Kind of experiment: dynamic binding capacity, measured after six 4 h cycles in 1.0 M NaOH; ligand 9.7 mg/ml on agarose beads.
The target is the same in experiment [7]. The experiment in a line: dynamic binding capacity, measured after 24 h cumulative exposure to 0.5 M NaOH; ligand 7.0 mg/ml on agarose beads.
For experiment [8] the target is unchanged. Kind of experiment: dynamic binding capacity, 6 min residence; ligand […] on agarose beads.
For experiment [9] the target is unchanged. The experiment in a line: dynamic binding capacity, 6 min residence; ligand 7.0 mg/ml on agarose beads.
Experiment [10] shares this target. Kind of experiment: dynamic binding capacity, measured after 24 h cumulative exposure to 0.5 M NaOH; ligand […] on agarose beads.
Experiment [11] addresses IgG1 monoclonal antibody (probe molecule, Example 1). Kind of experiment: SPR (Biacore), ligand on CM5 chip, IgG1 mAb as probe. A general note: Surface plasmon resonance follows binding to a sensor surface in real time, without labels.
The target of experiment [12] is human polyclonal IgG (Gammanorm) (human). Kind of experiment: dynamic binding capacity, measured after 24 h cumulative exposure to 0.5 M NaOH; ligand 7.2 mg/ml on agarose beads.
For experiment [13] the target is unchanged. Kind of experiment: dynamic binding capacity, measured after six 4 h cycles in 1.0 M NaOH; ligand […] on agarose beads.
The target is the same in experiment [14]. The experiment in a line: dynamic binding capacity, 6 min residence; ligand 7.2 mg/ml on agarose beads.
Experiment [15] has the same target. The experiment in a line: dynamic binding capacity, 6 min residence; ligand […] on agarose beads. The source holds these as a separate data set.
Experiment [16] shares this target. Kind of experiment: dynamic binding capacity; matrix C4, ligand 15.2 mg/ml.
The target is the same in experiment [17]. The experiment in a line: dynamic binding capacity; matrix A56, ligand 19.2 mg/ml.
For experiment [18] the target is unchanged. Kind of experiment: dynamic binding capacity; matrix A20, ligand 21.1 mg/ml.
Experiment [19] has the same target. Kind of experiment: dynamic binding capacity; matrix H40, ligand 23.0 mg/ml.
Experiment [20] shares this target. Kind of experiment: dynamic binding capacity; matrix A63b, ligand 16.7 mg/ml.
For experiment [21] the target is unchanged. The experiment in a line: dynamic binding capacity; matrix A20, ligand […].
Experiment [22] shares this target. Kind of experiment: dynamic binding capacity; matrix A56-2, ligand 19.2 mg/ml.
For experiment [23] the target is unchanged. The experiment in a line: dynamic binding capacity; matrix H35, ligand 20.3 mg/ml.
The target is the same in experiment [24]. The experiment in a line: dynamic binding capacity; matrix C3, ligand […].
For experiment [25] the target is unchanged. The experiment in a line: dynamic binding capacity; matrix S9, ligand 18.4 mg/ml.
Experiment [26] shares this target. The experiment in a line: pH 6-3 citrate gradient elution from column, peak 1; ligand […].
For experiment [27] the target is unchanged. Kind of experiment: dynamic binding capacity; matrix A38, ligand 11.6 mg/ml.
Experiment [28] shares this target. Kind of experiment: dynamic binding capacity; matrix H35, ligand 12.3 mg/ml.
Experiment [29] shares this target. The experiment in a line: dynamic binding capacity; matrix A56-2, ligand […].
The target is the same in experiment [30]. The experiment in a line: dynamic binding capacity; matrix A38, ligand 15.8 mg/ml.
Experiment [31] shares this target. Kind of experiment: dynamic binding capacity; matrix A56-2, ligand 12.5 mg/ml.
The target is the same in experiment [32]. The experiment in a line: dynamic binding capacity; matrix A56, ligand […]. The conditions noted are these: ligand content 7.1 mg/ml.
For experiment [33] the target is unchanged. The experiment in a line: dynamic binding capacity; matrix H31, ligand […].
The target is the same in experiment [34]. Kind of experiment: dynamic binding capacity; matrix A33, ligand […]. The following applies: ligand content 6.5 mg/ml.
Experiment [35] shares this target. The experiment in a line: dynamic binding capacity; matrix A54, ligand […]. The following applies: ligand content 6.7 mg/ml.
For experiment [36] the target is unchanged. Kind of experiment: dynamic binding capacity; matrix C3, ligand 15.1 mg/ml.
Experiment [37] shares this target. The experiment in a line: dynamic binding capacity; matrix H35, ligand […].
For experiment [38] the target is unchanged. Kind of experiment: dynamic binding capacity; matrix A54, ligand 21.1 mg/ml.
Experiment [39] shares this target. Kind of experiment: dynamic binding capacity; matrix A63b, ligand 10.6 mg/ml.
The target is the same in experiment [40]. The experiment in a line: dynamic binding capacity; matrix H31, ligand 20.0 mg/ml.
Experiment [41] shares this target. The experiment in a line: dynamic binding capacity; matrix P10, ligand 19.0 mg/ml.
For experiment [42] the target is unchanged. The experiment in a line: dynamic binding capacity; matrix A56, ligand 15.2 mg/ml.
Experiment [43] has the same target. Kind of experiment: dynamic binding capacity; matrix A62a, ligand […].
The target is the same in experiment [44]. Kind of experiment: dynamic binding capacity; matrix A20, ligand 6.4 mg/ml.
For experiment [45] the target is unchanged. The experiment in a line: dynamic binding capacity; matrix A63b, ligand 6.4 mg/ml.
Experiment [46] shares this target. Kind of experiment: dynamic binding capacity; matrix A56, ligand 7.9 mg/ml.
For experiment [47] the target is unchanged. Kind of experiment: dynamic binding capacity; matrix C3, ligand 11.9 mg/ml.
The target is the same in experiment [48]. Kind of experiment: pH 6-3 citrate gradient elution from column, peak 2; ligand […].
Experiment [49] shares this target. Kind of experiment: dynamic binding capacity; matrix A62a, ligand 9.6 mg/ml.
The target is the same in experiment [50]. Kind of experiment: dynamic binding capacity; matrix C4, ligand 11.2 mg/ml.
Experiment [51] shares this target. The experiment in a line: dynamic binding capacity; matrix H40, ligand […]. The conditions noted are these: ligand content 6.9 mg/ml.
Experiment [52] has the same target. Kind of experiment: dynamic binding capacity; matrix A38, ligand […].
For experiment [53] the target is unchanged. The experiment in a line: dynamic binding capacity, measured after 24 h cumulative exposure to 0.5 M NaOH; ligand 10.8 mg/ml on agarose beads.
The target is the same in experiment [54]. The experiment in a line: dynamic binding capacity, 6 min residence; ligand 10.8 mg/ml on agarose beads.

Take “MabSelect SuRe LX (GE Healthcare Life Sciences)”: the Elution pH in experiment [1] amounted to 4.01 pH; in experiment [2] it was 3.7 pH.
As for “Zvar(N11K, H18K, S33K, D37E, A42R, N43A, L44I, K50R, L51Y)4 with an additional N-terminal cysteine (Examples 4 and 5) (designed binder)”, the Remaining IgG capacity Qb10 after six 4 h cycles in [3] was determined as 52 mg/mL; in [6], 48.1 mg/mL. Moreover, the Initial IgG capacity Qb10 was 56.3 mg/mL in [4] and 62.1 mg/mL in experiment [5].
For the substance “Zvar(Q9A, N11E, N28A, N43A)4 with an additional N-terminal cysteine (Example 4) (designed binder)”, the figures for the Remaining IgG capacity Qb10 after six 4 h cycles in experiment [7] and in experiment [10] were 44.1 mg/mL and 46.2 mg/mL, respectively. Further, the Initial IgG capacity Qb10 was found to be 50 mg/mL in experiment [8] and 49.1 mg/mL in experiment [9].
In experiment [11], “Zvar(Q9A, N11E, Q40V, A42K, N43A, L44I)1 (designed binder)” came in with a Kd of 1.07 nM, a koff of 0.000437 s⁻¹ and a kon of 410000 M⁻¹ s⁻¹.
For “Zvar(Q9A, N11E, Q40V, A42K, N43A, L44I)4 with an additional N-terminal cysteine (Examples 4 and 5) (designed binder)”, the figures for the Initial IgG capacity Qb10 in experiment [8], in [14] and in experiment [15] were 56.3 mg/mL, 49 mg/mL and 60.3 mg/mL, respectively. For the same substance, the Remaining IgG capacity Qb10 after six 4 h cycles in [12] was 44.2 mg/mL; in [13], 56 mg/mL; in experiment [10], 53.6 mg/mL.
Turning to “Zvar(Q9A, N11E, Q40V, A42K, N43A, L44I)6 (designed binder)”, the Qb10% 2.4 min in experiment [16] amounted to 57 mg/mL; in experiment [17] it was 55 mg/mL; in experiment [18], 44 mg/mL; in experiment [19], 41 mg/mL; in experiment [20], 53 mg/mL; in experiment [21], 38 mg/mL. Moreover, the Qb10% 2.4 min in experiment [22] was 61 mg/mL; in [23] it was 20 mg/mL; in [24], 48 mg/mL; in experiment [25], 56 mg/mL; in experiment [27] it was 48 mg/mL; in [28] it was 31 mg/mL. In addition, the Qb10% 2.4 min in experiment [29] was found to be 50 mg/mL; in experiment [30] it was 36 mg/mL; in experiment [31] it was 59 mg/mL; in [32] it was 48 mg/mL; in experiment [33] (ligand content 6.5 mg/ml) it was 37 mg/mL; in experiment [33] (ligand content 10.4 mg/ml), 50 mg/mL. The Qb10% 2.4 min in experiment [34] amounted to 44 mg/mL; in experiment [35] it was 38 mg/mL; in experiment [36] it was 43 mg/mL; in experiment [37] it was 36 mg/mL; in experiment [38], 38 mg/mL; in experiment [39], 49 mg/mL. Also, the Qb10% 2.4 min is 31 mg/mL in experiment [40]; 48 mg/mL in experiment [42]; 62 mg/mL in [43]; 41 mg/mL in experiment [44]; 42 mg/mL in experiment [45]; 47 mg/mL in [46]. The Qb10% 2.4 min stood at 51 mg/mL in experiment [47]; 56 mg/mL in [49]; 62 mg/mL in [50]; 50 mg/mL in experiment [51]; 47 mg/mL in experiment [52]. Also, the Qb10% 6 min was determined as 82 mg/mL in [16]; 80 mg/mL in experiment [17]; 43 mg/mL in experiment [18]; 65 mg/mL in experiment [19]; 69 mg/mL in experiment [20]; 64 mg/mL in experiment [21]. The Qb10% 6 min in [22] worked out at 82 mg/mL; in experiment [23] it was 43 mg/mL; in experiment [24], 59 mg/mL; in [25] it was 75 mg/mL; in experiment [27], 72 mg/mL; in experiment [28] it was 54 mg/mL. Also, the Qb10% 6 min in experiment [29] amounted to 58 mg/mL; in experiment [30], 62 mg/mL; in experiment [31] it was 72 mg/mL; in [32], 57 mg/mL; in experiment [33] (ligand content 6.5 mg/ml) it was 38 mg/mL; in experiment [33] (ligand content 10.4 mg/ml) it was 61 mg/mL. In addition, the Qb10% 6 min stood at 53 mg/mL in experiment [34]; 46 mg/mL in experiment [35]; 61 mg/mL in experiment [36]; 49 mg/mL in experiment [37]; 65 mg/mL in experiment [38]; 60 mg/mL in experiment [39]. Further, the Qb10% 6 min stood at 52 mg/mL in [40]; 76 mg/mL in experiment [41]; 76 mg/mL in experiment [42]; 84 mg/mL in experiment [43]; 56 mg/mL in experiment [44]; 46 mg/mL in experiment [45]. Also, the Qb10% 6 min in [46] was determined as 55 mg/mL; in [47], 73 mg/mL; in [49], 72 mg/mL; in [50] it was 74 mg/mL; in experiment [51] it was 56 mg/mL; in experiment [52] it was 57 mg/mL. The Elution pH in experiment [26] was found to be 4.24 pH; in experiment [48], 3.81 pH.
Consider “Zvar(Q9A, N11K, H18K, D37E, A42R)4 with an additional N-terminal cysteine (Example 4) (designed binder)”, for which, in experiment [53], the Remaining IgG capacity Qb10 after six 4 h cycles worked out at 52.5 mg/mL. In experiment [54], this substance registered an Initial IgG capacity Qb10 of 56.9 mg/mL.
